Reference: publication PMC4275181, “Evolution of RNA-Protein Interactions: Non-Specific Binding Led to RNA Splicing Activity of Fungal Mitochondrial Tyrosyl-tRNA Synthetases”

Legend:
CYT-18 NTDs = biological target: T1, CYT-18 NTDs (Neurospora crassa, UniProt P12063 33-417); experiment: filter binding; 25C; 100 mM KCl, 5 mM MgCl2, 20 mM Tris-HCl pH 7.5, 5 mM DTT, 0.1 mg/ml BSA, 10% glycerol, 5 pM RNA, 30 min, 25C or 37C; nitrocellulose/nylon filter; conditions: protein: recombinant; tags: N-terminal 6xHis, TEV-cleaved; extra N-terminal Gly; chain copies: 2; label: 5'-32P
T1 sequence: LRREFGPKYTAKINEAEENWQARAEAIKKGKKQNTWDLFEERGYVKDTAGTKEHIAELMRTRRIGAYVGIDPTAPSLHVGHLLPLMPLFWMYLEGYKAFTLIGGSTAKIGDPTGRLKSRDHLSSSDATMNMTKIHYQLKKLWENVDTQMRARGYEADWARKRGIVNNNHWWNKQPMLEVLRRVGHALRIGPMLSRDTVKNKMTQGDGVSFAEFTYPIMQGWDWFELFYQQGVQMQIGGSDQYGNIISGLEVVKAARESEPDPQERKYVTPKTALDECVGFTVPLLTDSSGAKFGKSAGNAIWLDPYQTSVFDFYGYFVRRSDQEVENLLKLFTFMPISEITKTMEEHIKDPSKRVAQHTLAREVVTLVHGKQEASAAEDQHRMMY

Sc CTD = biological target: T2, Sc CTD (Saccharomyces cerevisiae, UniProt P48527 414-492); experiment: filter binding; 25C; n=1.6; 100 mM KCl, 5 mM MgCl2, 20 mM Tris-HCl pH 7.5, 5 mM DTT, 0.1 mg/ml BSA, 10% glycerol, 5 pM RNA, 30 min, 25C or 37C; nitrocellulose/nylon filter; conditions: protein: recombinant; label: 5'-32P
T2 sequence: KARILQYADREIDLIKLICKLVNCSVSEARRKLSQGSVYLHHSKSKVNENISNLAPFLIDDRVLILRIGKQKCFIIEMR

With UUUUUUUUUUUUUUUUUUUUUUUUUUUUUU (ssRNA) [poly(U)30] the binding result (CYT-18 NTDs) was “no binding” and the “apparent K (half saturation)” value (Sc CTD) was 1000 nM.
